Consider 15 molecules from patent US20210284724A1 (I MAB BIOPHARMA US, published 2021).

A word on the IC50: it is the concentration needed to halve the response being measured. High values mean a need for much substance, low ones inhibition by little substance. As usually defined, the EC50 is the midpoint of the concentration-response curve. A higher EC50 goes with lower potency in that assay.

For experiment [1], the target named is T1, human CXCL13 (human, UniProt O43927 23-109).
T1 construct: also called huCXCL13; rhCXCL13
T1 sequence (looked up): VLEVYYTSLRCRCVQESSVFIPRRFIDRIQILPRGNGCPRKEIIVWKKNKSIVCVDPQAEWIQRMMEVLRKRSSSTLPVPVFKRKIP
Put plainly: cell-based blocking ELISA, CXCL13 to CHO-K1-CXCR5. The procedure:
Splenocytes were electro-fused with mouse myeloma cell line SP2/0 cells and plated into 96-well culture plate. The hybridoma supernatants were tested by ELISA binding assay for anti-human CXCL13 binders. Supernatants of positive binding clones were screened for function in blocking of human CXCL13 binding to its […] CXCR5 by Cell-based receptor blocking ELISA assay. Briefly, 5×10⁴ CHO-K1-CXCR5 cells were plated in 96-well plate with 100 μl of culture medium and incubated at 37° C. overnight. Cells were fixed with 100 μl of 2% PFA at RT for 1 hr after washing with PBS for 1 time. Blocking was done with 1% BSA in PBST for 1 hr at RT. Supernatants were diluted with PBS and pre-incubated with equal volume of 0.3 μg/ml human CXCL13 for 30 min at RT. 100 μl of antibody-antigen complex was then transferred into each cell wells for 30 min at RT. The samples were washed with 1×PBST for 3 times and 100 μl of 3 μg/ml of human Mab5261 antibody was add into each well to capture human CXCL13 and anti-human Fc-HRP was used to indirectly detect human CXCL13 when it bound to CHO-K1-CXCR5 cells. […] Reading was done at […].
Those antibodies were purified from hybridoma supernatants by binding with Protein G column and characterized by ELISA binding assays and cell-based blocking ELISA assays. […] 11/20 clones bound to both human CXCL13 and cynomolgus CXCL13 appeared to completely block human CXCL13 to human CXCR5. 11 blockers bound to both huCXCL13 and cynoCXCL13 were produced as chimeric human IgG1 antibodies for further Characterization.

Experiment [2] deals with T1, human CXCL13. Put plainly: ELISA, coated antigen. (In general: In an ELISA, binding on a coated surface is turned into a signal by an enzyme label.)
The target in the next experiment is T2, cynomolgus CXCL13 (cynomolgus, UniProt H6WS58 23-109).
T2 construct: also called cynoCXCL13; Cyno CXCL13
T2 sequence: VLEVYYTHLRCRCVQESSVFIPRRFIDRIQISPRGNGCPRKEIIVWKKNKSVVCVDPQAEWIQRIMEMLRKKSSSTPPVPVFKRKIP
Put plainly: ELISA, coated antigen.

For a further experiment, the target named is T3, mouse CXCL13 (mouse, UniProt O55038 22-109).
T3 construct: also called rmCXCL13
T3 sequence (looked up): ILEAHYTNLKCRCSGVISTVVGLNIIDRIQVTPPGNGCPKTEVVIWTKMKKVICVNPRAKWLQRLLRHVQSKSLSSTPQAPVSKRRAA
In words: ELISA, coated antigen.

B1: 329F2E1 (antibody, V domains shown)
VH: EVKLLQSGGGLVQPGGSLKLSCAASGIDFSRYWMSWVRRAPGKGLEWIGEINPDSSTINYAPSLKDKFIISRDNAKNTLYLQMSKVRSEDTALYYCARQDDYDYYAMDYWGQGTSVTVSS
VL: DIVMTQSHKFMSTSVGDRVSITCKASQDVSTGVAWYQQKPGQSPKLLIYSASYRYTGVPDRFTGSGSRTDFTFTISSVQTEDPAVYYCHQYYTIPLTFGAGTELELK
notes: Hybridoma mAb
As for B1, the IC50 in the experiment with human CXCL13 [1] was determined as 0.615 µg/mL. The figures for the half-maximal effective concentration (EC50) with human CXCL13 [2] and with cynomolgus CXCL13 were 0.0166 µg/mL and 0.0125 µg/mL, respectively. Further, the binding result with mouse CXCL13 is recorded as “no binding”.

B2: 71F4A3 (antibody, V domains shown)
VH: EVKLLQSGGGLVQPGGSLKLSCAASGIDFSRYWMSWVRRAPGKGLEWIGEINPDSSTINYAPSLKDKFIISRDNAKNTLYLQMSKVRSEDTALYYCARQDDYEYYAMDYWGQGTSVTVSS
VL: DIVMTQSHKSMSTSVGDRVSITCKASQDVNTGVAWYRQKPGQSPKLLIYSASYRYTGVPDRFTGSGSGTDFTFTISSVQAEDLAVYYCQQYYSTPLTFGAGTKLELK
notes: Hybridoma mAb
Regarding B2, the IC50 in the experiment with human CXCL13 [1] is 3.02 µg/mL. Besides, the EC50 was 0.0266 µg/mL with human CXCL13 [2] and 1.01 µg/mL in the experiment with cynomolgus CXCL13. Further, the binding result in the experiment with mouse CXCL13 was “no binding”.

B3: 178B2E8 (antibody, V domains shown)
VH: EVKLVESEGGLVQPGSSMKLSCTASGFTFTDYYMTWVRQVPEKGLEWVANINYDGSRTNYLDSLKSRFIISRDNAKNILYLQMSSLKSEDTATYYCARDGNYHFYGMDYWGQGTSVTVSS
VL: DFVLTQSHKFMSTSVGDRVSITCKASQDVSTAVAWYQQKPGQSPQLLIYWASTRHTGVPDRFTGSGSGTDYTLTISSVQAEDLALYYCQQHYSTPWTFGGGTKLEIK
notes: Hybridoma mAb
On to B3, for which the EC50 with human CXCL13 [2] came to 0.42 µg/mL. Further, the binding result in the experiment with cynomolgus CXCL13 and with mouse CXCL13 was “no binding” in each case.

B4: 397C3B3 (antibody, V domains shown)
VH: DVQLQESGPGLVKPSQSLSLTCTVTGYSITSDYAWNWIRQFPGNKLEWMGYISYSGSTSYNPSLKSRISINRDTSKNQFFLQLNSVTTEDTATYYCVAGHFDYWGQGTTLTVSS
VL: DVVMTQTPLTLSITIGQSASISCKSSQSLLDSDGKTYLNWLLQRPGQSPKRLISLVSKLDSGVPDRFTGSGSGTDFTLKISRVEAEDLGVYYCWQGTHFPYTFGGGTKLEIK
notes: Hybridoma mAb
Take B4: the EC50 turned out to be 0.344 µg/mL with human CXCL13 [2] and 0.401 µg/mL in the experiment with cynomolgus CXCL13. In addition, in the experiment with mouse CXCL13, the binding result is “no binding”.

B5: 430D9B3 (antibody, V domains shown)
VH: QVTLKESGPEILQPSQTLSLTCTFSGFSLSPYGMGVGWIRQPSGKGLEWLANIWWDDDKYYNPSLINRLTISKDTSNNQAFLKITNVDTTDSATYYCVRSELVMPYVPFDYWGQGVMVTVSS
VL: DIQMTQSPSSMSASLGDRVTITCQASQDIENDLIWFQQKPGKSPRPLIYYATNLANGVPSRFSGRRSESNYSLTISSLESEDMADYHCLQFKQYPYTFGAGTKLELK
notes: Hybridoma mAb
In the experiment with human CXCL13 [1], B5 gave an IC50 of 3.85 µg/mL. Besides, the EC50 amounted to 0.0265 µg/mL with human CXCL13 [2] and 0.0547 µg/mL with mouse CXCL13. For the same molecule, the binding result with cynomolgus CXCL13 is “no binding”.

B6: 423A6H6 (antibody, V domains shown)
VH: QVTLKESGPGILQPSQTLSLTCTFSGFSLSTYGMGVGWIRQPSGKGLEWLANIWWDDDKYYNPSLQNRLTISKDTSNNQAFLKITNVDTADTATYYCARSELIMPYVPFDYWGQGVRVTVSS
VL: DIQMTQSPSSMSASLGDRVTITCQASQDIDNHLIWFQQKPGKSPRPMIYYATNLANGVPSRFSGSRSGSDYSLTISSLESEDMADYHCLQFKQYPFTFGSGTKLEIK
notes: Hybridoma mAb
Turning to B6, half-maximal inhibition with human CXCL13 [1] (IC50) required 8.96 µg/mL. Also, the values for the EC50 with human CXCL13 [2] and with mouse CXCL13 were 1.56 µg/mL and 0.248 µg/mL, respectively. The binding result with cynomolgus CXCL13 is reported as “no binding”.

B7: 402H2G12 (antibody, V domains shown)
VH: QVTLKESGPGILQPSQTLSLTCTFSGFSLSTYGMGVGWIRQPSGKGLEWLANIWWDDDKYYNPSLQNRLTISKDTSNNQAFLKINNVDTADTATYYCARSELIMPYVPFDYWGQGVRVTVSS
VL: DIQMTQSPSSMSASLGDRVTITCQASQDIDNHLIWFQQKPGKSPRPMIYYATNLANGVPSRFSGSRSGSDYSLTISSLESEDMADYHCLQFKQYPFTFGSGTKLEIK
notes: Hybridoma mAb
The molecule B7 registered an IC50 with human CXCL13 [1] of 8.72 µg/mL. Moreover, the EC50 with human CXCL13 [2] was found to be 0.00578 µg/mL; with mouse CXCL13, 0.0357 µg/mL. Also, in the experiment with cynomolgus CXCL13, the binding result is recorded as “no binding”.

B8: 424H7F2 (antibody, V domains shown)
VH: QVTLKESGPEILQPSQTLTLTCTFSGFSLSPYGMGVGWIRQPSGKGLEWLANIWWDDDKYYNPSLINRLTISKDTSNNQAFLKITNVDTTDSATYYCVRSELVMPYVPFDYWGQGVMVTVSS
VL: DIQMTQSPSSMSASLGDRVTITCQASQDIENDLIWFQQKPGKSPRPLIYYATNLANGVPSRFSGRRSESNYALTISSLESEDMADYHCLQFKQYPYTFGAGTKLELK
notes: Hybridoma mAb; also called surrogate anti-CXCL13 antibody
Molecule B8 showed an IC50 with human CXCL13 [1] of 1.1 µg/mL. Moreover, the EC50 with human CXCL13 [2] was 0.0109 µg/mL; in the experiment with mouse CXCL13, 0.0121 µg/mL. The binding result with cynomolgus CXCL13 is “no binding”.

B9: 416C9H8 (antibody, V domains shown)
VH: QVTLKESGPEILQPSQTLSLTCTFSGFSLSPYGMGVGWIRQPSGKGLEWLANIWWDDDKYYNPSLINRLTISKDTSNNQAFLKITNVDTTDSATYYCVRSELVMPYVPFDYWGQGVMVTVSS
VL: DIQMTQSPSSMSASLGDRVTITCQASQDIENDLVWFQQKPGRSPRPLIYYATNLANGVPSRFSGRRSESDYSLTISSLESEDMADYHCLQFKQYPYTFGAGTKLELK
notes: Hybridoma mAb
As for B9, the half-inhibitory concentration (IC50) with human CXCL13 [1] stood at 8.46 µg/mL. Further, the figures for the EC50 in the experiment with human CXCL13 [2] and with mouse CXCL13 were 5.84 µg/mL and 1.97 µg/mL, respectively. Also, the binding result with cynomolgus CXCL13 is “no binding”.

B10: 445A6G7 (antibody, V domains shown)
VH: QVTLKESGPEILQPSQTLSLTCTFSGFSLSPYGMGVGWIRQPSGKGLEWLANIWWDDDKYYNPSLINRLTISKDTSNNQAFLKITNVDTTDSATYYCVRSELVMPYVPFDYWGQGVMVTVSS
VL: DIQMTQSPSSMSASLGDRVTITCQASQDIGNDLIWFQQKPGKSPRPLIYYATNLANGVPSRFSGRRSESNYSLTISSLESEDMADYHCLQFKQYPYTFGAGTKLELK
notes: Hybridoma mAb
Consider B10, for which the IC50 with human CXCL13 [1] worked out at 14.9 µg/mL. Besides, the EC50 with human CXCL13 [2] amounted to 2.91 µg/mL; with mouse CXCL13, 1.23 µg/mL. In addition, in the experiment with cynomolgus CXCL13, the binding result is reported as “no binding”.

B11: 348B10B1 (antibody, V domains shown)
VH: EVQLQQSGPELVKPGASVKISCKTSGYTFTEYIMHWVKQSHGRSLEWIGGINPDNGDTTYNQKFKGKATLTVDKSSTTAYMELRSLTSEDSAVYYCAGGVLDYWGQGTSVTVSS
VL: not shown
notes: Hybridoma mAb
In the case of B11, the figures for the EC50 with human CXCL13 [2] and in the experiment with cynomolgus CXCL13 were 0.0124 µg/mL and 0.0166 µg/mL, respectively. For the same molecule, the binding result in the experiment with mouse CXCL13 is on record as “no binding”.

B12: 360A3D4E3 (antibody, V domains shown)
VH: EVQLQQSGPELVKPGASVKISCKTSGYTFTEYIMHWVKQSHERSLEWIGGIHPDNGDTTYNQKFTGKATLTVDKSSTTAYMELRSLTSEDSAVYYCAGGVLDYWGQGTSVTVSS
VL: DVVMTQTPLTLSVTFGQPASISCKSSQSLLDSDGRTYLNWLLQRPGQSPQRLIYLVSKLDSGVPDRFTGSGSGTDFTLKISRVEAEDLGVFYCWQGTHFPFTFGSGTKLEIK
notes: Hybridoma mAb
Regarding B12, the EC50 in the experiment with human CXCL13 [2] was 0.00664 µg/mL; in the experiment with cynomolgus CXCL13, 0.0178 µg/mL. Moreover, the binding result with mouse CXCL13 was “no binding”.

B13: 339H3E2 (antibody, V domains shown)
VH: EVQLQQSGPELVKPGASVKISCKTSGYTFTEYIMHWVKQSHGRSLEWIGGINPNNGGTTYNQKFKGKATLTVDKSSSTAYMELRSLTSEDSAVYYCAGGVMDYWGQGTSVTVSS
VL: not shown
notes: Hybridoma mAb
As to B13, the values for the EC50 with human CXCL13 [2] and with cynomolgus CXCL13 were 0.0388 µg/mL and 0.0319 µg/mL, respectively. The binding result with mouse CXCL13 is “no binding”.

B14: 414D10F5 (antibody, V domains shown)
VH: EVQLAESGGGLVQPGRSLKLSCSASGFTFSDYYMAWFRQAPPKGLEWVASISYDGGDSFYRDSVKGRFTISRDNAKSSLYLQMDSLRSEDTATYYCTTEEDYSGSFPDYWGQGVMVTVSS
VL: DIQMTQSPSFLSASVGDRVTINCKASQNINKYLNWYQQKLGEAPKRLIYDTNNLQAGIPSRFSGSGSGTDYTLTINSLQPEDFATYFCLQHNSLYTFGGGTKLELK
notes: Hybridoma mAb
Take B14: in the experiment with human CXCL13 [1], the IC50 was found to be 1.14 µg/mL. Further, the EC50 in the experiment with human CXCL13 [2] worked out at 0.0104 µg/mL; in the experiment with cynomolgus CXCL13 it was 0.019 µg/mL. Further, in the experiment with mouse CXCL13, the binding result is given as “no binding”.

B15: 1H3A11 (antibody, V domains shown)
VH: EVQLVESGGGLVKPGGSLKLSCAASGFTFSSYAMSWVRQTPEKRLEWVATISDGGSDTYYPDNVKGRFTISRDNAKNNLYLQMSHLKSEDTAMYYCARDYYGSSYEDYAMDYWGQGTSVTVSS
VL: DIQMTQSPSSLSASLGGKVTITCKASQDINKYITWYQHKPGKGPRLLIHYTSTLQPGIPSRFSGSGSGRDYSFSISNLEPEDIATYYCLQYDNLYTFGGGTKLEIK
notes: Hybridoma mAb
Take B15: in the experiment with human CXCL13 [1], the IC50 was 10.1 µg/mL. Besides, the EC50 in the experiment with human CXCL13 [2] is 0.0633 µg/mL; with cynomolgus CXCL13, 0.145 µg/mL. Also, the binding result with mouse CXCL13 is listed as “no binding”.
